In assay [1] the target is T1, human PDGFR-hIgG1-Fc chimeric fusion protein (human, UniProt P09619 33-530).
T1 construct: For the IgG assay it was captured by an anti-6His antibody, which points to a His tag; also called recombinant human PDGFR-hIgG1-Fc chimeric fusion protein (R&D, #385-PR-100/CF); human PDGFRβ; not shown: human IgG1 Fc
In words: SPR (Biacore T100), PDGFR-Fc captured by anti-6His antibody, 1:1 model. The method, then: (§1) IgG1 to human PDFGR were determined using surface plasmon resonance on a Biacore T100. Briefly, recombinant human PDGFR-hIgG1-Fc chimeric fusion protein (R&D, #385-PR-100/CF) was immobilized on a Series CM5 sensorchip coupled with anti-hIgG1 Fc monoclonal antibody (for the VH and ScFv assays) or anti-6His antibody (for the IgG assay). […] The data was analyzed using the Biacore T100 analysis software using a 1:1 model. Mass transport was checked and avoided to allow accurate measurements. All data was double referenced according to Biacore standard protocol.

The target of assay [2] is T1, human PDGFR-hIgG1-Fc chimeric fusion …. In words: SPR (Biacore T100), human PDGFR-hIgG1-Fc captured by anti-hIgG1 Fc, 1:1 fit. The method, then:
(§2) The R4 framework shuffled human and mouse PDGFRβ enriched VH domain pool selected in Example 2 was cloned into E. coli expression vectors, produced and purified. The binding kinetics of the VH domains to human and mouse PDFGR was determined using surface plasmon resonance on a Biacore T100. Briefly, human and mouse PDGFR-hIgG1-Fc chimeric fusion protein were separately immobilized using a Series CM5 sensorchip (CM5) coupled to anti-hIgG1 Fc monoclonal antibody. For each cycle, the PDGFR fusion protein was first captured, followed by the injection of VH for 115 seconds at a flow rate of 100 uL/min (association). Immediately following the association phase is a dissociation phase of 600 seconds. The surface was regenerated at each cycle with a single injection of 3M MgCl2 (10 uL/min, 60 seconds). Multiple concentrations of VH domain were injected (0.55 nM-40 nM) and the resulting sensorgram were analyzed with T100 Evaluation software. The binding kinetics was determined using 1:1 binding curve fitting.
(In general: In SPR one partner is held on a chip, and binding of the other changes the refractive index at the surface.)

Assay [3] deals with T2, mouse PDGFR-hIgG1-Fc chimeric fusion protein (mouse; human, UniProt P05622 32-530, limits assumed).
T2 construct: also called mouse PDGFRβ; mouse PDFGR; not shown: human IgG1 Fc
T2 sequence (looked up): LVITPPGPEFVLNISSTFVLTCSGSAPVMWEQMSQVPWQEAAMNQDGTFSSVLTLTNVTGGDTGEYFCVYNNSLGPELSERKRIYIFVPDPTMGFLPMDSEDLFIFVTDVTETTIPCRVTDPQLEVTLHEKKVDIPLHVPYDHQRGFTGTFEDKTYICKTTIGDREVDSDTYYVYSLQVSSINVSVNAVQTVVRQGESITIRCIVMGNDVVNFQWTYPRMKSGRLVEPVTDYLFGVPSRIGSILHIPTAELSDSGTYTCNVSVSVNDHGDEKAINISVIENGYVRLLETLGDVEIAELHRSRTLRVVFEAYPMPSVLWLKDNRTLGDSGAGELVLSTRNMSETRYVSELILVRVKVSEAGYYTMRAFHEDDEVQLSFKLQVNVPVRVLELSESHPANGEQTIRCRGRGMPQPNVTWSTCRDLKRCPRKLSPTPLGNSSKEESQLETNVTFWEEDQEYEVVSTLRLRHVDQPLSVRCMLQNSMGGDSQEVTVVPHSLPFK
Briefly: SPR (Biacore T100), mouse PDGFR-hIgG1-Fc captured by anti-hIgG1 Fc, 1:1 fit. The method, then: as §2

The target of assay [4] is T1, human PDGFR-hIgG1-Fc chimeric fusion …. Briefly: SPR (Biacore T100), PDGFR-Fc captured by anti-hIgG1 Fc, VH injected, 1:1 fit. The method, then:
as §2

For assay [5] the target is unchanged. In words: SPR (Biacore T100), human PDGFR-hIgG1-Fc captured by anti-hIgG1 Fc, 1:1 fit; the text prints it rounded as 93 pM. Here is the method:
as §2

In assay [6] the target is T3, human PDGFRβ (human, UniProt P09619 33-530, limits assumed).
T3 construct: also called hPDGFRβ; recombinant human PDGFRβ
T3 sequence (P09619 33-530 limits assumed): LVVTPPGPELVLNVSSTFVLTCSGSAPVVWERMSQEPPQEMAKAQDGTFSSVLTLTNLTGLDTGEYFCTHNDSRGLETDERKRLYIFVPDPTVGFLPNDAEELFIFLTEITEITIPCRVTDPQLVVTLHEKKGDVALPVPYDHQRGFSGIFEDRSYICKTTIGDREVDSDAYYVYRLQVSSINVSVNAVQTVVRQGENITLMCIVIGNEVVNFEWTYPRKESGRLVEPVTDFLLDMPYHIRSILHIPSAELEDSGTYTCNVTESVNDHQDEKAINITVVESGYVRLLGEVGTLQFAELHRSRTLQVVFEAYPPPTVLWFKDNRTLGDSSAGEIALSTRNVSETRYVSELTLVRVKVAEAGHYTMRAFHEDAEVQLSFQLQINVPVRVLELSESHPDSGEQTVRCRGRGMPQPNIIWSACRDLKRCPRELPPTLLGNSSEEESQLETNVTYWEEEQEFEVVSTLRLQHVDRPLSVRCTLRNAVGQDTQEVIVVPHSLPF
Briefly: solution equilibrium binding: 35S-Met labelled in vitro translated protein, human PDGFRβ titrated (0 to 20 nM), capture on protein A beads, scintillation counts. Here is the method: The affinity of several scFvs was determined by solution based equilibrium binding assay. Specifically, 120 pmol of scFv RNA was translated into free protein with ³⁵S Met incorporated. The translated reaction mixture was 3-fold diluted in binding buffer containing 1×PBS with 0.025% triton, 1 mg/mL BSA and 0.1 mg/mL sssDNA. […] The diluted scFv mixture was incubated with hPDGFRβ in final volume of 100 ul on Kingfisher plates (Thermofisher Scientific, 97002084). Following incubation, 25 ul of protein A magnetic beads (Invitrogen) were used to capture the PDGFRβ from solution. The captured PDGFRβ was washed and eluted in kingfisher Reader (Thermofisher Scientific). The amount of scFv (labeled with ³⁵S Met) bound to the magnetic bead-immobilized hPDGFRβ was counted using a scintillation counter and the Kd was calculated with Graph Pad Prism 5.

The target in assay [7] is T1, human PDGFR-hIgG1-Fc chimeric fusion …. Briefly: SPR (Biacore T100), PDGFR-Fc captured by anti-hIgG1 Fc, 1:1 model. Here is the method: as §1
Assay [8] shares this target. In words: SPR competition (Biacore T100): captured PDGFR-Fc, VH 0.46-60 nM, then 10 nM PDGFBB. The method, then: Briefly, human PDGFR-hIgG1-Fc chimeric fusion protein was immobilized using a Series CM5 sensorchip coupled with anti-hIgG1 Fc monoclonal antibody. […] For each successive cycle, the PDGFR fusion protein was first captured then VH domain was then injected for 120 seconds. […] The surface was regenerated at each cycle with a single injection of 3M MgCl2 (10 uL/min, 60 seconds).

Assay [9] addresses T3, human PDGFRβ. In words: ELISA: plate coated with 2 ug/mL human PDGFRβ or human IgG, crude scFv lysate, anti-flag-HRP, OD450. Here is the method: (§3) A PDGFRβ binding ELISA assay was performed to assess the binding of the scFv to immobilized PDGFRβ and to determine the EC50. Specifically, 2 ug/mL of human PDGFRβ and human Fc or IgG in PBS was immobilized on Maxisorp plates at 4° C. overnight. The plate was then washed and blocked with superblock. In vitro translated crude scFv lysate was diluted 1:3 in 1×PBST. 100 ul of the diluted scFv lysate was loaded into each well of Maxisorp plates and incubated for 1 hour at room temperature. scFv that bound to immobilized PDGFRβ was detected by anti-flag antibody-HRP at 1:5000 dilution and a TMB substrate. The plate was read on a Molecular Device plate reader with end point assay at OD 450 nm.

Assay [10] addresses T3, human PDGFRβ. Briefly: ELISA: plate coated with 2 ug/mL human PDGFRβ or human Fc, in vitro translated crude lysate diluted 1:3, anti-flag-HRP, OD450. The method, then:
as §3
(In general: In an ELISA, binding on a coated surface is turned into a signal by an enzyme label.)

Data on 7 molecules can be found in patent publication US20130177572A1 (X BODY, published 2013).

A value given as a limit tells only on which side of the number the result lay.

T1 sequence (P09619 33-530 limits assumed, change not shown): as the sequence (P09619 33-530 limits assumed) above

B1: XB2202/A4 IgG1 (antibody)
heavy: not shown
light: DVVMTQSPSSLSASVGDRVTITCQASQDISNWLNWYQQKPGKAPKLLIYEASNLETGVPSRFSGSGSGTDFTFTISSLQPEDIATYYCQQYNNVLRTFGQGTKVEIKRTVAAPSVFIFPPSDEQLKSGTKVEIKRTVAAPSVFIFPPSDEQLKSGTASVVCLLNNFYPREAKVQWKVDNALQSGNSQESVTEQDSKDSTYSLSSTLTLSKADYEKHKVYACEVTHQGLSSPVTKSFNRGEC
notes: Full-length heterotetrameric IgG1 expressed in 293T cells; also called XB2202/A4 IgG1 antibody
By Kd is commonly meant the constant that tells how readily two partners part at equilibrium. A low value points to a tighter complex. Usually koff stands for the rate constant with which the complex falls apart. High values mean fast dissociation, low ones slow dissociation. The kon is the second-order rate constant of association. The low end stands for slow association, the high end for fast association. As for B1, in assay [1], the affinity, expressed as Kd, was 1.59 nM; the koff stood at 0.00156 s⁻¹; the on-rate (kon) worked out at 980000 M⁻¹ s⁻¹.

B2: XB2708 VH domain (other)
VH: QVQLVQSGGGVVQPGGSLRLSCAASGFTSRSYGMHWVRQAPGKGLEWVAFILFDGNNKYYADSVKGRFTISSDNSKNTLYLQMNSLRAEDTAVYYCATHGGDRSYWGQGTLVTVSS
notes: Isolated (unpaired) human VH domain, framework-shuffled derivative of XB1511; produced in E. coli for SPR
With B2, the kon in assay [2] is 9.94e+06 M⁻¹ s⁻¹; in assay [3] it was 6.41e+06 M⁻¹ s⁻¹. Also, the Kd in assay [3] turned out to be 1.08 nM; in assay [4], 0.093 nM; in [5], 0.0933 nM. In addition, the koff in assay [3] came out at 0.00692 s⁻¹; in [4], 0.000927 s⁻¹.

B3: XB2202 VH domain (other)
VH: QVQLVQSGAEVKKPGSSVRVSCKASGGTFSRHAISWVRQAPGQGLEWIGGILPILKTPNYAQRFQGRVTINADESTSTVYMEMSSLRSEDTAVYYCATHGGDRSYWGQGTLVTVSS
notes: as for B2
What is called IC50 is the concentration at which inhibition is half-maximal. A high value points to lower potency. In the case of B3, the dissociation constant Kd in [2] turned out to be 0.243 nM; in [3], 0.925 nM; in the assay with human PDGFRβ [6], 0.234 nM; in assay [4] it was 0.249 nM; in assay [7] it was 0.227 nM. Besides, the koff in [2] turned out to be 0.00175 s⁻¹; in assay [3], 0.00289 s⁻¹; in assay [4], 0.00186 s⁻¹; in [7], 0.00295 s⁻¹. For the same molecule, the results for the on-rate constant (kon) in assay [2], in assay [3] and in [7] were 7.19e+06 M⁻¹ s⁻¹, 3.13e+06 M⁻¹ s⁻¹ and 1.3e+07 M⁻¹ s⁻¹, respectively. The IC50 in [8] was below 5 nM.

B4: C2 (scFv, V domains shown)
VH: QVQLVQSGAEVKKPGSSVRVSCKASGGTFSRHAISWVRQAPGQGLEWIGGILPILKTPNYAQRFQGRVTINADESTSTVYMEMSSLRSEDTAVYYCATHGGDRSYWGQGTLVTVSS
VL: DIQMTQSPSSLSASVGDRVAIACRPSQDIGTDLGWYQQKPGKAPKLLIFDSSTLQSGVPSRFSGSLSGTDFILTITNLQPEDFATYYCLQDYSFPYTFGQGTKLQIKR
notes: also called scFv XB2202-C2; XB2202/C2 scFv
B4: the Kd in the assay with human PDGFRβ [6] is 0.018 nM.

B5: A5 (scFv, V domains shown)
VH: QVQLVQSGAEVKKPGSSVRVSCKASGGTFSRHAISWVRQAPGQGLEWIGGILPILKTPNYAQRFQGRVTINADESTSTVYMEMSSLRSEDTAVYYCATHGGDRSYWGQGTLVTVSS
VL: SYELTQPPSASASLGASVTLTCTVSSGYRSYEVDWFQQRPGKGPRFVMRVGTGGIVGSRGDGIPDRFSVWGSGLNRYLTIEDIQEEDESDYYCGADHGSGSNLVYVFGTGTKVTVL
notes: also called XB2202/A5 scFv
With B5, the binding result with human PDGFRβ [9] is given as “no binding”.

B6: A8 scFv (scFv, V domains shown)
VH: QVQLVQSGAEVKKPGSSVKVSCKASGGTFSSYAISWVRQAPGQGLEWMGGIIPIFGTANYAQKFQGRVTITADESTSTAYMELSSLRSEDTAVYYCAIHGGDRSYWGQGTLVTVSS
VL: QAGLTQSPDFQSVTPKERVTITCRASRYIGSNLHWYQQKPDQPPKLLIKLASQSFSGVPPRFSGGGSGTDFTLTINGLEAEDAATYYCHQTGSFPYTFGQGTKLTVL
notes: VL of the second round pool paired with XB1511 VH
In the case of B6, the binding result in the assay with human PDGFRβ [10] is given as “binds”.

B7: C7 scFv (scFv, V domains shown)
VH: QVQLVQSGAEVKKPGSSVKVSCKASGGTFSSYAISWVRQAPGQGLEWMGGIIPIFGTANYAQKFQGRVTITADESTSTAYMELSSLRSEDTAVYYCAIHGGDRSYWGQGTLVTVSS
VL: DIVMTQTPLSLSVTPGQPASISCKSSQSLLHSDGKTHLFWYLQRPGQSPQLLIYEVSGRFSGVSERFSGSGSGTDFTLKISRVEAEDVGVYYCMQGLHIPHTFGQGTKVEIK
notes: as for B6
As to B7, the binding result with human PDGFRβ [10] is listed as “binds”.
